This is an account of results in publication PMC9304885.

For the assay, the target named is recombinant M. hyopneumoniae mhp390 (rMhp390) (Mycoplasma hyopneumoniae). In words: BLI; ForteBio Octet Red96; biotinylated rMhp390 immobilised on streptavidin (SA) biosensors, rNOD1 in solution; PBST (PBS, 0.02% Tween20); association 300 s, dissociation 600 s; 1:1 binding model.

As a reminder, the Kd is the free concentration of one partner at which half of the binding sites on the other are occupied at equilibrium, for simple one-to-one binding. As for “recombinant NOD1 (rNOD1), nucleotide-binding oligomerization domain 1 (receptor)”, the dissociation constant Kd is 8.14 µM.
